Results taken from patent US20240199745A1, “ANTI-EGFR ANTIBODY DRUG CONJUGATES” (priority 2016, published 2024).

Tests used:
[1] = molecular target: human EGFR (huEGFR) over-expressed on mcl-1-/- mouse embryonic fibroblasts (human, UniProt P00533 25-1210); experiment: cell-based or functional assay
[2] = molecular target: EGFR on EGFR positive non-small cell lung cancer cells NCI-H1650 (UniProt P00533 25-1210); experiment: cell-based or functional assay

Row | huEGFR+ mcl-1-/- MEF EC50 [1] [nM] | H1650 CTG-3D EC50 [2] [µg/mL] | H1650 GFP Flourescence EC50 [2] [µg/mL] | Binder
1 | 0.3 | 0.88 | 1.24 | AbA-CZ (antibody, human IgG1, kappa, V domains shown, synthon CZ on reduced interchain cysteines; average DAR 3.2 per ADC) VH: EVQLQESGPGLVKPSQTLSLTCTVSGYSISRDFAWNWIRQPPGKGLEWMGYISYNGNTRYQPSLKSRITISRDTSKNQFFLKLNSVTAADTATYYCVTASRGFPYWGQGTLVTVSS VL: DIQMTQSPSSMSVSVGDRVTITCHSSQDINSNIGWLQQKPGKSFKGLIYHGTNLDDGVPSRFSGSGSGTDYTLTISSLQPEDFATYYCVQYAQFPWTFGGGTKLEIKR
2 | 460 | > 40 | 7.85 | AbA-YY (antibody, human IgG1, kappa, V domains shown, synthon YY on reduced interchain cysteines; average DAR 2.2 per ADC) VH: EVQLQESGPGLVKPSQTLSLTCTVSGYSISRDFAWNWIRQPPGKGLEWMGYISYNGNTRYQPSLKSRITISRDTSKNQFFLKLNSVTAADTATYYCVTASRGFPYWGQGTLVTVSS VL: DIQMTQSPSSMSVSVGDRVTITCHSSQDINSNIGWLQQKPGKSFKGLIYHGTNLDDGVPSRFSGSGSGTDYTLTISSLQPEDFATYYCVQYAQFPWTFGGGTKLEIKR
3 | 152 | > 40 | 29.3 | AbA-KZ (antibody, human IgG1, kappa, V domains shown, synthon KZ on reduced interchain cysteines; average DAR 2 per ADC) VH: EVQLQESGPGLVKPSQTLSLTCTVSGYSISRDFAWNWIRQPPGKGLEWMGYISYNGNTRYQPSLKSRITISRDTSKNQFFLKLNSVTAADTATYYCVTASRGFPYWGQGTLVTVSS VL: DIQMTQSPSSMSVSVGDRVTITCHSSQDINSNIGWLQQKPGKSFKGLIYHGTNLDDGVPSRFSGSGSGTDYTLTISSLQPEDFATYYCVQYAQFPWTFGGGTKLEIKR
4 | 105 | 4 | 4.23 | AbA-SE (antibody, human IgG1, kappa, V domains shown, synthon SE on reduced interchain cysteines; average DAR 2.8 per ADC) VH: EVQLQESGPGLVKPSQTLSLTCTVSGYSISRDFAWNWIRQPPGKGLEWMGYISYNGNTRYQPSLKSRITISRDTSKNQFFLKLNSVTAADTATYYCVTASRGFPYWGQGTLVTVSS VL: DIQMTQSPSSMSVSVGDRVTITCHSSQDINSNIGWLQQKPGKSFKGLIYHGTNLDDGVPSRFSGSGSGTDYTLTISSLQPEDFATYYCVQYAQFPWTFGGGTKLEIKR
5 | 32 | > 40 | > 40 | AbA-XW (antibody, human IgG1, kappa, V domains shown, synthon XW on reduced interchain cysteines; average DAR 3.7 per ADC) VH: EVQLQESGPGLVKPSQTLSLTCTVSGYSISRDFAWNWIRQPPGKGLEWMGYISYNGNTRYQPSLKSRITISRDTSKNQFFLKLNSVTAADTATYYCVTASRGFPYWGQGTLVTVSS VL: DIQMTQSPSSMSVSVGDRVTITCHSSQDINSNIGWLQQKPGKSFKGLIYHGTNLDDGVPSRFSGSGSGTDYTLTISSLQPEDFATYYCVQYAQFPWTFGGGTKLEIKR
6 | 6.4 | 3.8 | 2.84 | AbA-YG (antibody, human IgG1, kappa, V domains shown, synthon YG on reduced interchain cysteines; average DAR 1.9 per ADC) VH: EVQLQESGPGLVKPSQTLSLTCTVSGYSISRDFAWNWIRQPPGKGLEWMGYISYNGNTRYQPSLKSRITISRDTSKNQFFLKLNSVTAADTATYYCVTASRGFPYWGQGTLVTVSS VL: DIQMTQSPSSMSVSVGDRVTITCHSSQDINSNIGWLQQKPGKSFKGLIYHGTNLDDGVPSRFSGSGSGTDYTLTISSLQPEDFATYYCVQYAQFPWTFGGGTKLEIKR
7 | 5.9 | 2.12 | 2.22 | AbA-SR (antibody, human IgG1, kappa, V domains shown, synthon SR on reduced interchain cysteines; average DAR 2.3 per ADC) VH: EVQLQESGPGLVKPSQTLSLTCTVSGYSISRDFAWNWIRQPPGKGLEWMGYISYNGNTRYQPSLKSRITISRDTSKNQFFLKLNSVTAADTATYYCVTASRGFPYWGQGTLVTVSS VL: DIQMTQSPSSMSVSVGDRVTITCHSSQDINSNIGWLQQKPGKSFKGLIYHGTNLDDGVPSRFSGSGSGTDYTLTISSLQPEDFATYYCVQYAQFPWTFGGGTKLEIKR
